Results on three substances are retold here after patent publication US20200319204A1.

Experiment [1] addresses semisynthetic H3K27me3 nucleosome (internal standard ladder) (human) (UniProt Q71DI3). As to the kind of experiment: multi-standard ICeChIP-seq, six nucleosome ladders doped equimolar into mESC nuclei.
For experiment [2], the target named is unmodified nucleosome (internal standard) (human) (UniProt Q71DI3). Put plainly: ICeChIP-qPCR, capture of barcoded nucleosome standards doped into mESC nucleosomes.
In experiment [3] the target is semisynthetic H3K36me3 nucleosome (internal standard) (human) (UniProt Q71DI3). The description is as above.
The target of experiment [4] is semisynthetic H3K4me3 nucleosome (internal standard ladder) (human) (UniProt Q71DI3). Described as above.
Experiment [5] has as its target semisynthetic H3K9me3 nucleosome (internal standard ladder) (human) (UniProt Q71DI3). Put plainly: multi-standard ICeChIP-seq, six nucleosome ladders doped equimolar into mESC nuclei.

Take “H3K9me3 antibody M309M3-A (Hattori et al., 2013)”: the percent of the on-target signal in experiment [1] was determined as 10%.
On to H3K4me3 antibody (Active Motif AM39159), for which the figures for the enrichment (internal standard, ICeChIP-qPCR) in experiment [2], in experiment [3] and in experiment [4] were 1.9, 2.8 and 81, respectively. In experiment [4], the apparent specificity (on target signal against H3K36me3 nucleosome) worked out at 30 fold.
Regarding H3K27me3 antibody (Millipore 07-449), in experiment [5], the percent of the on-target signal is 26%.
